# Reference: paper PMC11508082 (PLOS Pathogens, 2024)
# Biological target: the molecule itself
# Experiment: SDS-PAGE and anti-6xHis immunoblot of Ni-affinity elution fractions
protein,measurement,value
"6xHis tagged PdhR (natural protein, also called PdhR-his; recombinant PdhR-his; source: E. coli BL21 DE3 (pET21a(+)), purified (Ni2+ chelating column, HisTrap)) MAYSKIRQPKLSDVIEQQLEFLILEGTLRPGEKLPPERELAKQFDVSRPSLREAIQRLEAKGLLLRRQGGGTFVQSSLWQSFSDPLVELLSDHPESQYDLLETRHALEGIAAYYAALRSTDEDKERIRELHHAIELAQQSGDLDAESNAVLQYQIAVTEAAHNVVLLHLLRCMEPMLAQNVRQNFELLYSRREMLPLVSSHRTRIFEAIMAGKPEEAREASHRHLAFIEEILLDRSREESRRERSLRRLEQRKN",stoichiometry N,2
